Where a chain is given by its changes, count along the chain named.
Tests used:
[1] = molecular target: T1, She3p (Saccharomyces cerevisiae, UniProt P38272 1-425); assay: EMSA; minimal She3p concentration for detection; EMSA: 20 mM HEPES pH 7.8, 200 mM NaCl, 2 mM MgCl2, 2 mM DTT, 4% glycerol, 30 or 100 ug/ml yeast tRNA, 5 nM RNA, 20 C; filter binding: 20 mM HEPES pH 7.4-7.5 (7.9 with She3p), 150 mM NaCl, 2 mM MgCl2, 2 mM DTT, 30 ug/ml yeast tRNA, 0.5 nM RNA; pull-down: HNMD buffer, 4 C; settings: protein: recombinant; tags: C-terminal His6; label: 32P; stem-loop
T1 sequence: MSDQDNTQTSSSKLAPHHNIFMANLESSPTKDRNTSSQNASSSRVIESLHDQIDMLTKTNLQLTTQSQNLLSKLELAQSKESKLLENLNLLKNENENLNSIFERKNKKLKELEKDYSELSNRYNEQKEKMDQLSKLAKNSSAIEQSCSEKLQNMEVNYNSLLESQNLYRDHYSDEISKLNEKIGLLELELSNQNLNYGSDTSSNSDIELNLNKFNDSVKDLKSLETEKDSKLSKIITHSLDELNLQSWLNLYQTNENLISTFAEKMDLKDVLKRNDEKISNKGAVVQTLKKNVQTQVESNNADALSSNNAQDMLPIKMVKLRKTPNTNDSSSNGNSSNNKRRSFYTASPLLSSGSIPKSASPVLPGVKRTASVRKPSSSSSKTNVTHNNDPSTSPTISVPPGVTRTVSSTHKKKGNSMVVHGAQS

[2] = molecular target: She2p (Saccharomyces cerevisiae, UniProt P36068 1-246); assay: filter binding; +++ reference; EMSA: 20 mM HEPES pH 7.8, 200 mM NaCl, 2 mM MgCl2, 2 mM DTT, 4% glycerol, 30 or 100 ug/ml yeast tRNA, 5 nM RNA, 20 C; filter binding: 20 mM HEPES pH 7.4-7.5 (7.9 with She3p), 150 mM NaCl, 2 mM MgCl2, 2 mM DTT, 30 ug/ml yeast tRNA, 0.5 nM RNA; pull-down: HNMD buffer, 4 C; settings: protein: recombinant; tags: GST tag (PreScission-cleaved); chain copies: 4; label: 32P; stem-loop
[3] = molecular target: T2, She3p (S343E S361E) (Saccharomyces cerevisiae, UniProt P38272 1-425, S343E;S361E); assay: EMSA; +++; EMSA: 20 mM HEPES pH 7.8, 200 mM NaCl, 2 mM MgCl2, 2 mM DTT, 4% glycerol, 30 or 100 ug/ml yeast tRNA, 5 nM RNA, 20 C; filter binding: 20 mM HEPES pH 7.4-7.5 (7.9 with She3p), 150 mM NaCl, 2 mM MgCl2, 2 mM DTT, 30 ug/ml yeast tRNA, 0.5 nM RNA; pull-down: HNMD buffer, 4 C; settings: protein: recombinant; tags: C-terminal His6; label: 32P; stem-loop
T2 sequence: T1 sequence with S343E, S361E

[4] = molecular target: T3, She3p (L364A V367A) (Saccharomyces cerevisiae, UniProt P38272 1-425, L364A;V367A); assay: as above; settings: protein: recombinant; tags: C-terminal His6; label: 32P; stem-loop
T3 sequence: T1 sequence with L364A, V367A

[5] = molecular target: She2p (ΔC);She3p (Saccharomyces cerevisiae;Saccharomyces …, UniProt P36068;P38272 1-240;1-425, |); assay: EMSA; She3p 25 nM; at least 25 nM She2p(ΔC) required; EMSA: 20 mM HEPES pH 7.8, 200 mM NaCl, 2 mM MgCl2, 2 mM DTT, 4% glycerol, 30 or 100 ug/ml yeast tRNA, 5 nM RNA, 20 C; filter binding: 20 mM HEPES pH 7.4-7.5 (7.9 with She3p), 150 mM NaCl, 2 mM MgCl2, 2 mM DTT, 30 ug/ml yeast tRNA, 0.5 nM RNA; pull-down: HNMD buffer, 4 C; settings: protein: recombinant;recombinant; tags: GST tag (PreScission-cleaved);C-terminal His6; label: 32P; stem-loop
Chain of She2p (ΔC);She3p (P36068 1-240, stated change not applied, one chain of several): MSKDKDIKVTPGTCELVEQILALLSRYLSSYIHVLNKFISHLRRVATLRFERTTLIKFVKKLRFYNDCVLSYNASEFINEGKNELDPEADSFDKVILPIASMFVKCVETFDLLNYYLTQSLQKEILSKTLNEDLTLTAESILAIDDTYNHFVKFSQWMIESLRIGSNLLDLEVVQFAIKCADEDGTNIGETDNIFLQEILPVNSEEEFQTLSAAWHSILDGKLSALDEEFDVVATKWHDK

Chain of She2p (P36068 whole entry): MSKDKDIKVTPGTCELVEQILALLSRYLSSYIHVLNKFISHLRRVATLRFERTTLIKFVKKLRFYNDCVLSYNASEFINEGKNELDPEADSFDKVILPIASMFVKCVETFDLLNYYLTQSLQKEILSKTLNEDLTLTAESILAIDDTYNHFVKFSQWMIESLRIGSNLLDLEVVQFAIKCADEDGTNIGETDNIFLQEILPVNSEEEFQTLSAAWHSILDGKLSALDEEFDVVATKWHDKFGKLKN

B1: ASH1 E3-118 (structured_RNA)
RNA: GAGACAGUAGAGAAUUGAUACAUGGAUAACUGAAUCUCUUUCAACUAAUAAGAGACAUUAUCACGAAACAAUUGUACAUUUCUCUCCUUGUCUGUGCUAAAUAAACUACAAAUAAAAA
B1: binds [1]; binds [2]; binds [3]. For the same binder, the binding result [4] was “binds” and the binding signal [5] was ~5 fold reduced.

From article PMC3079584, “A Cytoplasmic Complex Mediates Specific mRNA Recognition and Localization in Yeast”
